Experimental data as given in patent US20080299088A1 (US Dept. of Health and Human Services, published 2008).

Molecular target: Notch-1 receptor on RIN 1046-38 clonal rat beta-cells (rat, UniProt Q07008 19-2531)
Assay: cell-based or functional assay

Sequence of Notch-1 receptor on RIN 1046-38 clonal rat beta-cells (Q07008 19-2531): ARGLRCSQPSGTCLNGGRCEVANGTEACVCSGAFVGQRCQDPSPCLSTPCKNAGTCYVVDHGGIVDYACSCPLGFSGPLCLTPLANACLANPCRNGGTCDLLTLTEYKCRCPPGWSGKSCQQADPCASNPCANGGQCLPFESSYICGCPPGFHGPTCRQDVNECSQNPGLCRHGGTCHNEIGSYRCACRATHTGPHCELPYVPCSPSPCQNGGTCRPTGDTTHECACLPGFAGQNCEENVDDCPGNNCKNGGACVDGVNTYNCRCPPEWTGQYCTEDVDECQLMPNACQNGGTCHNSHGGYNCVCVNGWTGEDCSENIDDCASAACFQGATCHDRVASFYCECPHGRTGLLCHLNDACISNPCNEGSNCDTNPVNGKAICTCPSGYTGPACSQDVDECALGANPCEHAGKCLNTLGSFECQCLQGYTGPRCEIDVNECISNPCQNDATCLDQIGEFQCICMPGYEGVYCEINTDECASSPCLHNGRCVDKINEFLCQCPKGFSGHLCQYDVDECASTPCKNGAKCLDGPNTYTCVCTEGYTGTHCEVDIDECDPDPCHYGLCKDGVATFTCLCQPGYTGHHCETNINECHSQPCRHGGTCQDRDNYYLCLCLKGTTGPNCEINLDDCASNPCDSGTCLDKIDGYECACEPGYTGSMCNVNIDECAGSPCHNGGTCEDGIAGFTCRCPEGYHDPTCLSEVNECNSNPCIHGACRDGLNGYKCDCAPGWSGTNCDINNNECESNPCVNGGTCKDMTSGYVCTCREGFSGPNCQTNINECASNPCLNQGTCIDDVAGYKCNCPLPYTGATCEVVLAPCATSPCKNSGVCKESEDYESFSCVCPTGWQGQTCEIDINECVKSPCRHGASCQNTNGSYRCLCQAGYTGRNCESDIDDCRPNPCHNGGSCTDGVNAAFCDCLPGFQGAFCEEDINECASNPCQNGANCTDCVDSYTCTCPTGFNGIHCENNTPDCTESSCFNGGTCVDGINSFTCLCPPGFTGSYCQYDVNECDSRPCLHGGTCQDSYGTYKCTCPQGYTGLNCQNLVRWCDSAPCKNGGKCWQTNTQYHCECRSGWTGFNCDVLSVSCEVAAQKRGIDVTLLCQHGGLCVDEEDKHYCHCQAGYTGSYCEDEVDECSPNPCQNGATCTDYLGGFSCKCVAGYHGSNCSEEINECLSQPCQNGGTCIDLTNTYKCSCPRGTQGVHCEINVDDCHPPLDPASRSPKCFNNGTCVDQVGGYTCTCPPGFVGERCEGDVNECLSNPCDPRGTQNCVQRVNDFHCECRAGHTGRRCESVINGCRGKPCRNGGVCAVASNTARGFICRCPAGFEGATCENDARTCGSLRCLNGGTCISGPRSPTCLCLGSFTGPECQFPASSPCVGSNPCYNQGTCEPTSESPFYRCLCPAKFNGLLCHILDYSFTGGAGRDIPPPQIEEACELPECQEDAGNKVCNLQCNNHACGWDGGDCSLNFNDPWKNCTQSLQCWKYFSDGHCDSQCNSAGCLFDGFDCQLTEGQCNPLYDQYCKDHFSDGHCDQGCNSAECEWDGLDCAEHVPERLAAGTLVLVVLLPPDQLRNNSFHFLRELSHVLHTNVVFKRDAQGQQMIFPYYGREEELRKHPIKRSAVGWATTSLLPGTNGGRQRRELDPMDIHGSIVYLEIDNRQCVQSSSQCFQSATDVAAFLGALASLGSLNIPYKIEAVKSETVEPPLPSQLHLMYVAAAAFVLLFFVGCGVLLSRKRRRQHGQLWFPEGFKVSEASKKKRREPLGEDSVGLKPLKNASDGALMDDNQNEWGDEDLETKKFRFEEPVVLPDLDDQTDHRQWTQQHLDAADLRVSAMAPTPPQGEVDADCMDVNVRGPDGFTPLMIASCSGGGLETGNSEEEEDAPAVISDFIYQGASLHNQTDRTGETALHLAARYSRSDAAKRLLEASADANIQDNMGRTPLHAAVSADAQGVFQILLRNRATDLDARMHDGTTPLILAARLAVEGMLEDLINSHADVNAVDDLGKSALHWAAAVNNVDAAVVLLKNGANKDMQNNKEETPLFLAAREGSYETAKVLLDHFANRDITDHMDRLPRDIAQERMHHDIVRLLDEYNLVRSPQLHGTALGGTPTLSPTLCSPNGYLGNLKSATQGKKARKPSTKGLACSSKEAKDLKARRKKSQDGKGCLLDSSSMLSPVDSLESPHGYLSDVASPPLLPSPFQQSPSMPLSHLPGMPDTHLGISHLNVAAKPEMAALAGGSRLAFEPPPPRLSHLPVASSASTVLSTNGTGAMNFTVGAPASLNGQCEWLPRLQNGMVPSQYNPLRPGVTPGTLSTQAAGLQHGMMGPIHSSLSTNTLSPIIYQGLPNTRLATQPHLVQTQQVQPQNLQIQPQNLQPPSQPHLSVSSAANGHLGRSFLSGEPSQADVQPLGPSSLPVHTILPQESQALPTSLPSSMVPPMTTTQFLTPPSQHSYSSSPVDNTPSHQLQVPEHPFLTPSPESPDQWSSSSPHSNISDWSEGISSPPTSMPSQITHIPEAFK

## CDDYYYGFGCNKFGRPRDD [Jagged peptide R-JAG]
  NICD nuclear localization, R-JAG together with glucose: 6 fold
  NICD translocation (nuclear NICD, immunoblot of nuclear extracts of RIN cells): 4 fold

## CDDYYYGFGCNKFCRPR [Jagged peptide JAG-1]
  NICD translocation (nuclear NICD, immunoblot of nuclear extracts of RIN cells): 4 fold
